± gives the standard deviation of the averaged measurements.
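Further: ATP exposure 15 min at 22 °C before imaging.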

The series concerns ATP. The series can be described thus: switch fluorescence ratio, 500 uM ATP over buffer (Cy3 cluster intensity, sum of 5 cycles each) (fold (ratio)); higher = stronger signal-on switching upon ATP binding; sequences stand for … in TCGTCGGCAGCGTCAGATGTGTATAAGAGACAGTTTTTTTTTTTTTTTTTTTTTTTTT…TC. As to conditions: aptamer strand: ATP DNA aptamer (quencher-CACCTGGGGGAGTATTGCGGAGGAAGG + anchor), 100 nM annealed; ATP concentration: 500 uM. An outline of the steps: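 For every switch-domain sequence, the fluorescence ratio is the mean of per-cluster values, each being summed target-cycle Cy3 intensity over summed buffer-cycle Cy3 intensity. Clusters outside 100-1000 RFU were excluded. On a modified Illumina MiSeq flow-cell, the Cy3-labelled switching-strand clusters were annealed to 100 nM quencher-labelled ATP aptamer, imaged in selection buffer and then after 15 min with 500 uM ATP at 22 °C. Five such cycles were run, with NaOH stripping and re-annealing between them.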
Turning to CCGTTGAGTC, the switch fluorescence ratio was 1.06 ± 0.049. Turning to TCGGAGGGAG, the switch fluorescence ratio came to 1.02 ± 0.056. As for AAGGGGCGCA, the switch fluorescence ratio came to 0.969 ± 0.045. Take GGAGACGGGT: the switch fluorescence ratio stood at 1.02 ± 0.036. Then TAGGGACGTT, with 0.988 ± 0.013; and TGCTGGCCGG, with 0.98 ± 0.022. The value for GGGGGCCCCG was 1 ± 0.013; that for TGACAGTTAT was 1.06 ± 0.038; that for CGTGTGAGAG was 0.986 ± 0.021. AGAGATTCAC: the switch fluorescence ratio stood at 1.03 ± 0.013. The value for CGCTCAGTTG was 1.13 ± 0.0039.

For AAGGTTTCAG, the switch fluorescence ratio was found to be 0.9758 ± 0.0079. The value for AGGTTTGTAG was 0.983 ± 0.013; that for CAACGGTTGG was 1.01 ± 0.045. Turning to TATTGAGAAG, the switch fluorescence ratio is 0.987 ± 0.025. Then CGAGGGTGCA, with 1.04 ± 0.021; and AATGCAATTG, with 1.03 ± 0.016. As to GTGTTAAGTA, the switch fluorescence ratio was 1.0306 ± 0.00088.

Turning to GGTAGGCAGG, the switch fluorescence ratio was 1 ± 0.021.

For CCTTCCTTGT, the switch fluorescence ratio amounted to 2.06 ± 0.031. The value for ACATTGGTAT was 1 ± 0.011.

GAGGGTGTAG: the switch fluorescence ratio is 0.988 ± 0.018. Then GCTTGCTTTT, with 0.989 ± 0.022.

For TAATCATGGT, the switch fluorescence ratio is 0.969 ± 0.024. The value for TCACATTAAG was 1.01 ± 0.037. The value for GACAAACCGC was 1.18 ± 0.032; that for CGAAGGGTGT was 0.999 ± 0.024. The value for CCCGGTATCG was 0.983 ± 0.013. GGGTTTGTCA: the switch fluorescence ratio is 1.02 ± 0.029.

As for CTGTATAGGT, the switch fluorescence ratio turned out to be 0.965 ± 0.025.

As to GCATTTTATT, the switch fluorescence ratio was 0.9938 ± 0.0026. Turning to TTATGAAGAT, the switch fluorescence ratio is 0.963 ± 0.029.

With TGTAAGGGCG, the switch fluorescence ratio turned out to be 1.02 ± 0.016. Then GGACTACCTG, with 1.01 ± 0.022; and ACTGGGGGAG, with 1.02 ± 0.015; and AAGTGCGGCC, with 0.987 ± 0.011. As to AATTGTGAAA, the switch fluorescence ratio came to 1.01 ± 0.013. As for CAGACTGGTT, the switch fluorescence ratio was determined as 1.011 ± 0.0067. In the case of CAAGAAAGTT, the switch fluorescence ratio was found to be 0.964 ± 0.034. The value for GCAGAATGGG was 1.08 ± 0.12; that for TGCAGGGTGC was 1.04 ± 0.016. As for GTCTAGAAAG, the switch fluorescence ratio was 0.985 ± 0.016. Regarding AATGGTTCGC, the switch fluorescence ratio was determined as 1.009 ± 0.0069. The value for TTCGTATCAT was 1.049 ± 0.0097. As for CTGTGGCCCG, the switch fluorescence ratio was determined as 0.98 ± 0.027. In the case of GTGACGAGTG, the switch fluorescence ratio came to 0.993 ± 0.047. The value for GAAGTTGTGT was 0.987 ± 0.031; that for TGTGTTTCGT was 1.007 ± 0.0084; that for CGAGGCGGAG was 1.01 ± 0.028. As to TTAGGGGACG, the switch fluorescence ratio came out at 0.981 ± 0.04.

Take TACTTTGCTG: the switch fluorescence ratio was found to be 1.02 ± 0.066. Then TGGCGGGGGC, with 1.02 ± 0.011.

Take TTTGCAGAAC: the switch fluorescence ratio was 1.2 ± 0.15. On to TTAGAGGGTA, for which the switch fluorescence ratio came to 0.9736 ± 0.0085. Then CGTTATAAAG, with 0.9811 ± 0.0012; and GGTTGTGATA, with 0.999 ± 0.044.

With ACACGCAAAA, the switch fluorescence ratio worked out at 1.571 ± 0.0081.

As for CCGTTGTTCG, the switch fluorescence ratio is 1.02 ± 0.027. Regarding CCTTCTTTTT, the switch fluorescence ratio was 1.06 ± 0.12.

For the sequence TTAAAATTAA, the switch fluorescence ratio was determined as 0.975 ± 0.021. For the sequence GAGAGAGGGT, the switch fluorescence ratio is 0.997 ± 0.014.

In the case of TAGCAAAAGG, the switch fluorescence ratio was determined as 1.03 ± 0.015.

For the sequence ATAACTGTAT, the switch fluorescence ratio was 1.122 ± 0.0049. Then TTGCTAGGGA, with 1.01 ± 0.055. For the sequence TTGAGTGACG, the switch fluorescence ratio was 0.9845 ± 0.0025.

Regarding ATTTTTCAGC, the switch fluorescence ratio amounted to 1.003 ± 0.0042. Then AAAGCTGCTT, with 0.987 ± 0.024; and TTTAATTAAG, with 0.985 ± 0.055; and GTTATATTTG, with 0.997 ± 0.031. The value for GGGATTGAGG was 1.01 ± 0.032. Then AGACCCTTTT, with 0.994 ± 0.037; and TTTTTTATGC, with 0.997 ± 0.018.

On to CTTTATTCGT, for which the switch fluorescence ratio came out at 0.9896 ± 0.0096. Then ATGGATGTGG, with 0.979 ± 0.055; and GGGGTATGTC, with 1.02 ± 0.053; and CATTGTTTGA, with 1.03 ± 0.021. The value for GAATAGGTAT was 0.99505 ± 0.00011. The value for GAAGATAGTG was 0.986 ± 0.03.

With GATATCCATG, the switch fluorescence ratio was 0.972 ± 0.014. The value for TTGTGTTTTC was 0.9971 ± 0.006; that for CGTGGATTTT was 0.972 ± 0.034; that for TGATTGAGAG was 1.016 ± 0.0025. Then GGGAGTATAG, with 0.9907 ± 0.0089; and GGAGAGTCGG, with 0.977 ± 0.035.

With TAGTAACATA, the switch fluorescence ratio came to 1.006 ± 0.0036.

For TATTATTTTC, the switch fluorescence ratio is 1.03 ± 0.046. The value for ATAGCACGTT was 1.03 ± 0.025; that for TTGTTCGTAG was 0.981 ± 0.034.

For GGCGGGGTGC, the switch fluorescence ratio amounted to 1.016 ± 0.0073. Take TAGATATGGT: the switch fluorescence ratio was determined as 0.989 ± 0.021.

With GATGTTTTTT, the switch fluorescence ratio is 1.07 ± 0.14. Then TTTGTAATGG, with 1.08 ± 0.14; and GGGAAAGGAG, with 0.989 ± 0.035. Take AAGGGCTAGG: the switch fluorescence ratio stood at 0.999 ± 0.014.

Turning to CGGTGGGCCG, the switch fluorescence ratio came to 1.05 ± 0.025. In the case of AGTGGTGCCG, the switch fluorescence ratio was 0.989 ± 0.02. For TAAAGGAGTT, the switch fluorescence ratio amounted to 0.981 ± 0.032.

As to TCGGGCATAG, the switch fluorescence ratio turned out to be 1.06 ± 0.046. For GCAGTGTGCT, the switch fluorescence ratio came to 0.982 ± 0.031. The value for AGCAGTGTCT was 1.04 ± 0.02; that for GGATATGTTG was 0.994 ± 0.019; that for GGGGGGTACG was 1 ± 0.05. Then GCTCATAGAT, with 0.988 ± 0.013. Turning to AGGTTTTTCT, the switch fluorescence ratio amounted to 0.987 ± 0.024. For CGTGGCGCGG, the switch fluorescence ratio turned out to be 0.9942 ± 0.0096. On to TAAGCTGGTA, for which the switch fluorescence ratio worked out at 0.995 ± 0.036. As to GCTTTGGGAC, the switch fluorescence ratio came to 1.25 ± 0.28. The value for TTCCGGGCGT was 1.12 ± 0.058; that for ATAATTGAAG was 0.99 ± 0.027; that for CGGCCTACAG was 1.05 ± 0.028. Regarding ACATATATGG, the switch fluorescence ratio worked out at 0.9752 ± 0.0051. Then GCTGAAGGTT, with 1.25 ± 0.36; and TTCCTAAAGA, with 1.06 ± 0.03; and GTCAATGGGA, with 1 ± 0.029. Then TAGAGCGGGG, with 0.99 ± 0.02; and GTCGGTTTTT, with 0.972 ± 0.022; and CAAGGGTGGC, with 1.003 ± 0.0061. As to GCATGGTTAA, the switch fluorescence ratio stood at 1.019 ± 0.0023. For the sequence GCTATATAGT, the switch fluorescence ratio worked out at 1.01 ± 0.011. As to GATAGTAAGT, the switch fluorescence ratio amounted to 0.998 ± 0.077.

The values are drawn from the supplement of paper PMC10126150.
